Results reported in patent publication US20210317176A1 (Amgen, published 2021).

These binders were tested against beta-klotho (assay: cell-based or functional assay).

EC50 (ELK-luciferase assay) | Binder
0.4 nM | human FGF21 (wild-type mature FGF21 polypeptide) (ligand) HPIPDSSPLLQFGGQVRQRYLYTDDAQQTEAHLEIREDGTVGGAADQSPESLLQLKALKPGVIQILGVKTSRFLCQRPDGALYGSLHFDPEACSFRELLLEDGYNVYQSEAHGLPLHLPGNKSPHRDPAPRGPARFLPLPGLPPAPPEPPGILAPQPPDVGSSDPLSMVGPSQGRSPSYAS

Biological target: beta-klotho
Assay: cell-based or functional assay
Remark: another data set of the same source

Efficacy (ELK-luciferase assay, relative to wild-type FGF21) | Binder
112% | FGF21 truncation mutant 2-181 (ligand) PIPDSSPLLQFGGQVRQRYLYTDDAQQTEAHLEIREDGTVGGAADQSPESLLQLKALKPGVIQILGVKTSRFLCQRPDGALYGSLHFDPEACSFRELLLEDGYNVYQSEAHGLPLHLPGNKSPHRDPAPRGPARFLPLPGLPPAPPEPPGILAPQPPDVGSSDPLSMVGPSQGRSPSYAS
12.5% | FGF21 truncation mutant 9-181 (ligand) LLQFGGQVRQRYLYTDDAQQTEAHLEIREDGTVGGAADQSPESLLQLKALKPGVIQILGVKTSRFLCQRPDGALYGSLHFDPEACSFRELLLEDGYNVYQSEAHGLPLHLPGNKSPHRDPAPRGPARFLPLPGLPPAPPEPPGILAPQPPDVGSSDPLSMVGPSQGRSPSYAS
105% | FGF21 truncation mutant 1-174 (ligand) HPIPDSSPLLQFGGQVRQRYLYTDDAQQTEAHLEIREDGTVGGAADQSPESLLQLKALKPGVIQILGVKTSRFLCQRPDGALYGSLHFDPEACSFRELLLEDGYNVYQSEAHGLPLHLPGNKSPHRDPAPRGPARFLPLPGLPPAPPEPPGILAPQPPDVGSSDPLSMVGPSQG
24.9% | FGF21 truncation mutant 8-181 (ligand) PLLQFGGQVRQRYLYTDDAQQTEAHLEIREDGTVGGAADQSPESLLQLKALKPGVIQILGVKTSRFLCQRPDGALYGSLHFDPEACSFRELLLEDGYNVYQSEAHGLPLHLPGNKSPHRDPAPRGPARFLPLPGLPPAPPEPPGILAPQPPDVGSSDPLSMVGPSQGRSPSYAS
95% | FGF21 truncation mutant 1-178 (ligand) HPIPDSSPLLQFGGQVRQRYLYTDDAQQTEAHLEIREDGTVGGAADQSPESLLQLKALKPGVIQILGVKTSRFLCQRPDGALYGSLHFDPEACSFRELLLEDGYNVYQSEAHGLPLHLPGNKSPHRDPAPRGPARFLPLPGLPPAPPEPPGILAPQPPDVGSSDPLSMVGPSQGRSPS
~20% | FGF21 truncation mutant 1-166 (ligand) HPIPDSSPLLQFGGQVRQRYLYTDDAQQTEAHLEIREDGTVGGAADQSPESLLQLKALKPGVIQILGVKTSRFLCQRPDGALYGSLHFDPEACSFRELLLEDGYNVYQSEAHGLPLHLPGNKSPHRDPAPRGPARFLPLPGLPPAPPEPPGILAPQPPDVGSSDPL
~20% | FGF21 truncation mutant 1-167 (ligand) HPIPDSSPLLQFGGQVRQRYLYTDDAQQTEAHLEIREDGTVGGAADQSPESLLQLKALKPGVIQILGVKTSRFLCQRPDGALYGSLHFDPEACSFRELLLEDGYNVYQSEAHGLPLHLPGNKSPHRDPAPRGPARFLPLPGLPPAPPEPPGILAPQPPDVGSSDPLS
84.9% | FGF21 truncation mutant 1-169 (ligand) HPIPDSSPLLQFGGQVRQRYLYTDDAQQTEAHLEIREDGTVGGAADQSPESLLQLKALKPGVIQILGVKTSRFLCQRPDGALYGSLHFDPEACSFRELLLEDGYNVYQSEAHGLPLHLPGNKSPHRDPAPRGPARFLPLPGLPPAPPEPPGILAPQPPDVGSSDPLSMV
93.2% | FGF21 truncation mutant 1-180 (ligand) HPIPDSSPLLQFGGQVRQRYLYTDDAQQTEAHLEIREDGTVGGAADQSPESLLQLKALKPGVIQILGVKTSRFLCQRPDGALYGSLHFDPEACSFRELLLEDGYNVYQSEAHGLPLHLPGNKSPHRDPAPRGPARFLPLPGLPPAPPEPPGILAPQPPDVGSSDPLSMVGPSQGRSPSYA
112% | FGF21 truncation mutant 1-177 (ligand) HPIPDSSPLLQFGGQVRQRYLYTDDAQQTEAHLEIREDGTVGGAADQSPESLLQLKALKPGVIQILGVKTSRFLCQRPDGALYGSLHFDPEACSFRELLLEDGYNVYQSEAHGLPLHLPGNKSPHRDPAPRGPARFLPLPGLPPAPPEPPGILAPQPPDVGSSDPLSMVGPSQGRSP

More lines, now with the values behind:

Binder | Efficacy (ELK-luciferase assay, relative to wild-type FGF21)
FGF21 truncation mutant 1-165 (ligand) HPIPDSSPLLQFGGQVRQRYLYTDDAQQTEAHLEIREDGTVGGAADQSPESLLQLKALKPGVIQILGVKTSRFLCQRPDGALYGSLHFDPEACSFRELLLEDGYNVYQSEAHGLPLHLPGNKSPHRDPAPRGPARFLPLPGLPPAPPEPPGILAPQPPDVGSSDP | ~10%
FGF21 truncation mutant 1-172 (ligand) HPIPDSSPLLQFGGQVRQRYLYTDDAQQTEAHLEIREDGTVGGAADQSPESLLQLKALKPGVIQILGVKTSRFLCQRPDGALYGSLHFDPEACSFRELLLEDGYNVYQSEAHGLPLHLPGNKSPHRDPAPRGPARFLPLPGLPPAPPEPPGILAPQPPDVGSSDPLSMVGPS | 97.5%
FGF21 truncation mutant 5-181 (ligand) DSSPLLQFGGQVRQRYLYTDDAQQTEAHLEIREDGTVGGAADQSPESLLQLKALKPGVIQILGVKTSRFLCQRPDGALYGSLHFDPEACSFRELLLEDGYNVYQSEAHGLPLHLPGNKSPHRDPAPRGPARFLPLPGLPPAPPEPPGILAPQPPDVGSSDPLSMVGPSQGRSPSYAS | 120%
FGF21 truncation mutant 1-176 (ligand) HPIPDSSPLLQFGGQVRQRYLYTDDAQQTEAHLEIREDGTVGGAADQSPESLLQLKALKPGVIQILGVKTSRFLCQRPDGALYGSLHFDPEACSFRELLLEDGYNVYQSEAHGLPLHLPGNKSPHRDPAPRGPARFLPLPGLPPAPPEPPGILAPQPPDVGSSDPLSMVGPSQGRS | 105%
FGF21 truncation mutant 7-181 (ligand) SPLLQFGGQVRQRYLYTDDAQQTEAHLEIREDGTVGGAADQSPESLLQLKALKPGVIQILGVKTSRFLCQRPDGALYGSLHFDPEACSFRELLLEDGYNVYQSEAHGLPLHLPGNKSPHRDPAPRGPARFLPLPGLPPAPPEPPGILAPQPPDVGSSDPLSMVGPSQGRSPSYAS | 74.2%
FGF21 truncation mutant 1-171 (ligand) HPIPDSSPLLQFGGQVRQRYLYTDDAQQTEAHLEIREDGTVGGAADQSPESLLQLKALKPGVIQILGVKTSRFLCQRPDGALYGSLHFDPEACSFRELLLEDGYNVYQSEAHGLPLHLPGNKSPHRDPAPRGPARFLPLPGLPPAPPEPPGILAPQPPDVGSSDPLSMVGP | 113%
FGF21 truncation mutant 1-173 (ligand) HPIPDSSPLLQFGGQVRQRYLYTDDAQQTEAHLEIREDGTVGGAADQSPESLLQLKALKPGVIQILGVKTSRFLCQRPDGALYGSLHFDPEACSFRELLLEDGYNVYQSEAHGLPLHLPGNKSPHRDPAPRGPARFLPLPGLPPAPPEPPGILAPQPPDVGSSDPLSMVGPSQ | 96.1%
FGF21 truncation mutant 3-181 (ligand) IPDSSPLLQFGGQVRQRYLYTDDAQQTEAHLEIREDGTVGGAADQSPESLLQLKALKPGVIQILGVKTSRFLCQRPDGALYGSLHFDPEACSFRELLLEDGYNVYQSEAHGLPLHLPGNKSPHRDPAPRGPARFLPLPGLPPAPPEPPGILAPQPPDVGSSDPLSMVGPSQGRSPSYAS | 130%
FGF21 truncation mutant 4-181 (ligand) PDSSPLLQFGGQVRQRYLYTDDAQQTEAHLEIREDGTVGGAADQSPESLLQLKALKPGVIQILGVKTSRFLCQRPDGALYGSLHFDPEACSFRELLLEDGYNVYQSEAHGLPLHLPGNKSPHRDPAPRGPARFLPLPGLPPAPPEPPGILAPQPPDVGSSDPLSMVGPSQGRSPSYAS | 117%
